Test results: publication PMC6423188, “HYNIC and DOMA conjugated radiolabeled bombesin analogs as receptor-targeted probes for scintigraphic detection of breast tumor” (EJNMMI Research, 2019)
Where two headings read alike, the source gives them in different places. Where a SMILES comes first, the peptide text is derived from it.

Columns and labels:
[1] = physchem; assay type: physicochemical; details: pH 7.4
Procedure: Lipophilicity of the HPLC-purified radiopeptide analogs was determined through octanol/water partition coefficients, determined at pH 7.4 by measuring the distribution of the HPLC purified radiolabeled peptides in 1-octanol and PBS. Then, 50 μL HPLC purified ^99mTc-BN1/^99mTc-BN2/^99mTc-BN3/^99mTc-BN4/^99mTc-BNS with 100 μCi of radiolabeled compound in PBS was added to a to a centrifuge tube containing 1 mL n-octanol and 1 mL PBS (0.025 M, pH 7.4). The tube was vortexed at room temperature for 2 min and they are centrifuged at 5000 rpm for 5 min to ensure complete separation of layers. Further, 100 μL of each phase was transferred into a separate pre-weighed vial and measured in the well γ-counter. The ratio of octanol layer counts to aqueous layer counts was expressed as the distribution coefficient (D, the appropriate descriptor for ionizable compounds) and logD was used for determination of lipophilicity. Counts per unit weight of the sample were calculated, and logD value as calculated as follows:
log10D = log10 [(cpm in octanol – cpm in background) / (cpm in buffer – cpm in background)]

[2] = in vitro; assay type: in vitro ADME; details: rat, serum
Procedure: An aliquot (100 μL) of ^99mTc-BN1/^99mTc-BN2/^99mTc-BN3/^99mTc-BN4/^99mTc-BNS was added to 1 mL of freshly collected rat serum in centrifuge tube. The mixture was then incubated at 37 °C for 1 h; the serum protein was precipitated by adding 1 mL trichloroacetic acid (10%, V/V). The supernatant and precipitate were separated by centrifugation at 3000 rpm for 5 min. Radioactivities of both the phases were measured separately. The above experimental procedure was repeated three times. The percentage of protein binding was determined as: Plasma protein binding % = (precipitate counts (CPM) / [precipitate counts (CPM) + plasma counts (CPM)]) × 100%.

[3] = In vivo biodistribution; parameters: species or system mouse; details: BALB/c, mouse, in vivo, total radioactivity
Procedure: (§1) All animal experiments were done according to the CSIR-IICB Animal Ethics Committee’s rules and regulation. Forty-eight hours before tumor cell implantation, an immunosuppressive drug (cyclosporine-A) was given intraperitoneal (i.p) at a concentration of 30 mg/kg/day. After that, MDA-MB-231 cells (5 × 10^6) 0.2 mL were implanted subcutaneously into the left flanks of the hind leg of BALB/c mice. Thereafter, the same dose of cyclosporine was given i.p. daily up to 2 weeks. Two weeks after inoculation of the tumor cells, when tumors reached ~ 0.5 cm in mean diameter, the tumor-bearing mice were used for biodistribution and imaging studies. Animals were monitored daily and their weights were recorded. Control group of mice received only 0.9 wt% saline. After cell implantation, the growth rate of the breast tumor followed a satisfactory pattern of spheroid shape and tumors are palpable within 2 to 4 weeks. MDA-MB-231 cell implanted mice tumor models were used for biodistribution and planar imaging studies of these radiolabeled new bombesin analogs.
(§2) In tissue biodistribution studies, tumor-bearing animals were divided into four groups and well hydrated for 1 h by intraperitoneal administration of saline (0.9%, 2 mL). Three animals per groups were used for biodistribution studies. After that, the radiolabeled new bombesin analogs (^99mTc-BN) were injected intravenously in each animal of each group consequently through the tail vein [24–27]. After 5, 30, 60, and 120 min intravenous administrations of radiolabeled analogs, the animals were sacrificed; blood, heart, lung, liver, kidney, stomach, intestine, spleen, pancreas, brain, muscle, and tumor were excised, weighed, and counted for radioactivity. The organ uptake was calculated as a percentage of the injected activity per gram of wet tissue (%IA/g). In order to evaluate whether binding of bombesin analogs to MDA-MB-231 cells in vivo is specific; blocking studies with ^99mTc-labeled bombesin analogs in tumor-bearing mice were carried out. Groups of three animals were injected 0.03 nmol of ^99mTc-labeled BN analogs (2 MBq) with 25 nmol of non-radiolabeled BN peptide. After 60 min and 120 min, mice were sacrificed and the organs were collected. Each organ was weighed and counted in a gamma counter along with activity standard and percentage of injected activity per gram (%IA/g) of tissue was calculated for each type of tissues. Counts were corrected for background radiation and physical decay of the radioactivity. The uptake was expressed in the percentage of injected activity per gram of each organ (%IA/g). Data were analyzed statistically by the t test, with the level of significance set at P < 0.05.

[4] = system: MDA-MB-231 tumor-bearing mice; experiment: In vivo biodistribution; parameters: species or system mouse; details: BALB/c, mouse, in vivo, iv
Procedure: as §1, §2

Compound `CCCC[C@H](NC(=O)[C@@H](Cc1ccc(O)cc1)NC(=O)[C@H](Cc1c[nH]cn1)NC(=O)[C@H]1CCCN1C(=O)[C@@H](NC(=O)[C@H](C)NC(=O)[C@H](Cc1c[nH]c2ccccc12)NC(=O)[C@H](CCC(N)=O)NC(=O)CCCNC(=O)CN1CCNCCNCCNCC1)C(C)C)C(N)=O` [99mTc-BN4, ^99mTc-DOMA-GABA-[Pro^11Tyr^13Nle^14]-BN(7-14)NH2, metal not drawn] (HELM PEPTIDE1{[O=C(CN1CCNCCNCCNCC1)[*:2]].[O=C(CCCN[*:1])[*:2]].Q.W.A.V.[dP].H.[dY].[Nle].[am]}$$$$V2.0) has a logD [1] of -2.7, a fraction unbound at 1 h [2] of 0.809 and a tissue uptake at 5 min ([3]; iv, Blood uptake) of 0.42 ± 0.01 %ID/g. It also gave a tissue uptake at 0.5 h ([3]; iv, Blood uptake) of 0.81 ± 0.01 %ID/g, a tissue uptake at 1 h ([3]; iv, Blood uptake) of 0.42 ± 0.03 %ID/g and a tissue uptake at 2 h ([3]; iv, Blood uptake) of 0.17 %ID/g. For the same compound, the tissue uptake at 5 min ([3]; iv, Heart uptake) was 0.73 ± 0.03 %ID/g, the tissue uptake at 0.5 h ([3]; iv, Heart uptake) was 0.67 ± 0.02 %ID/g and the tissue uptake at 1 h ([3]; iv, Heart uptake) was 0.25 ± 0.02 %ID/g. The tissue uptake at 2 h ([3]; iv, Heart uptake) was 0.09 ± 0.04 %ID/g, the tissue uptake at 5 min ([3]; iv, Intestine uptake) was 1.01 ± 0.06 %ID/g and the tissue uptake at 0.5 h ([3]; iv, Intestine uptake) was 1.6 ± 0.05 %ID/g. It also gave a tissue uptake at 1 h ([3]; iv, Intestine uptake) of 2.15 ± 0.21 %ID/g, a tissue uptake at 2 h ([3]; iv, Intestine uptake) of 0.82 ± 0.05 %ID/g and a tissue uptake at 5 min ([3]; iv, Kidney uptake) of 2.17 ± 0.11 %ID/g. It also gave a tissue uptake at 0.5 h ([3]; iv, Kidney uptake) of 3.95 ± 0.21 %ID/g, a tissue uptake at 1 h ([3]; iv, Kidney uptake) of 3.1 ± 0.17 %ID/g and a tissue uptake at 2 h ([3]; iv, Kidney uptake) of 2.1 ± 0.13 %ID/g. For the same compound, the tissue uptake at 5 min ([3]; iv, Liver uptake) was 0.4 ± 0.03 %ID/g, the tissue uptake at 0.5 h ([3]; iv, Liver uptake) was 0.32 ± 0.13 %ID/g and the tissue uptake at 1 h ([3]; iv, Liver uptake) was 0.28 ± 0.12 %ID/g. The tissue uptake at 2 h ([3]; iv, Liver uptake) was 0.17 ± 0.03 %ID/g, the tissue uptake at 5 min ([3]; iv, Lung uptake) was 1.07 ± 0.14 %ID/g and the tissue uptake at 0.5 h ([3]; iv, Lung uptake) was 0.82 ± 0.03 %ID/g. For the same compound, the tissue uptake at 1 h ([3]; iv, Lung uptake) was 0.7 ± 0.02 %ID/g, the tissue uptake at 2 h ([3]; iv, Lung uptake) was 0.25 ± 0.11 %ID/g and the tissue uptake at 5 min ([3]; iv, Muscle uptake) was 0.26 ± 0.02 %ID/g. It also gave a tissue uptake at 0.5 h ([3]; iv, Muscle uptake) of 0.32 ± 0.04 %ID/g, a tissue uptake at 1 h ([3]; iv, Muscle uptake) of 0.25 ± 0.02 %ID/g and a tissue uptake at 2 h ([3]; iv, Muscle uptake) of 0.1 ± 0.01 %ID/g. It also gave a tissue uptake at 5 min ([3]; iv, Pancreas uptake) of 2.88 ± 0.11 %ID/g, a tissue uptake at 0.5 h ([3]; iv, Pancreas uptake) of 4.49 ± 0.03 %ID/g and a tissue uptake at 1 h ([3]; iv, Pancreas uptake) of 3.75 ± 0.06 %ID/g. It also gave a tissue uptake at 2 h ([3]; iv, Pancreas uptake) of 1.1 ± 0.04 %ID/g, a tissue uptake at 5 min ([3]; iv, Spleen uptake) of 0.62 ± 0.04 %ID/g and a tissue uptake at 0.5 h ([3]; iv, Spleen uptake) of 0.56 ± 0.01 %ID/g. The tissue uptake at 1 h ([3]; iv, Spleen uptake) was 0.24 ± 0.01 %ID/g, the tissue uptake at 2 h ([3]; iv, Spleen uptake) was 0.17 ± 0.02 %ID/g and the tissue uptake at 5 min ([3]; iv, Stomach uptake) was 0.47 ± 0.02 %ID/g. The tissue uptake at 0.5 h ([3]; iv, Stomach uptake) was 0.51 ± 0.04 %ID/g, the tissue uptake at 2 h ([3]; iv, Stomach uptake) was 0.12 ± 0.01 %ID/g and the tissue uptake at 5 min ([3]; iv, Tumor uptake) was 1.3 ± 0.01 %ID/g. The tissue uptake at 0.5 h ([3]; iv, Tumor uptake) was 3.32 ± 0.01 %ID/g, the tissue uptake at 1 h ([3]; iv, Tumor uptake) was 2.85 ± 0.02 %ID/g and the tissue uptake at 2 h ([3]; iv, Tumor uptake) was 1.31 ± 0.03 %ID/g. The tissue to tissue ratio at 5 min ([3]; iv, tumor/blood ratio) was 3, the tissue to tissue ratio at 0.5 h ([3]; iv, tumor/blood ratio) was 4.09 and the tissue to tissue ratio at 1 h ([3]; iv, tumor/blood ratio) was 6.78. It also gave a tissue to tissue ratio at 2 h ([3]; iv, tumor/blood ratio) of 7.7, a tissue to tissue ratio at 5 min ([3]; iv, tumor/kidney ratio) of 0.59 and a tissue to tissue ratio at 0.5 h ([3]; iv, tumor/kidney ratio) of 0.84. For the same compound, the tissue to tissue ratio at 1 h ([3]; iv, tumor/kidney ratio) was 0.91, the tissue to tissue ratio at 2 h ([3]; iv, tumor/kidney ratio) was 0.62 and the tissue to tissue ratio at 5 min ([3]; iv, tumor/muscle ratio) was 5. It also gave a tissue to tissue ratio at 0.5 h ([3]; iv, tumor/muscle ratio) of 10.4, a tissue to tissue ratio at 1 h ([3]; iv, tumor/muscle ratio) of 11.4 and a tissue to tissue ratio at 2 h ([3]; iv, tumor/muscle ratio) of 12.4. The tissue uptake at 1 h ([3]; 60 min p.i., blocked with excess non-radiolabeled BN peptide, MDA-MB-231 tumor, mean ± SD, n = 3, read-out: Tumor uptake) was 0.66 ± 0.2 %ID/g, the tissue uptake at 1 h ([3]; 60 min p.i., blocked with excess non-radiolabeled BN peptide, mean ± SD, n = 3, read-out: Blood uptake) was 0.29 ± 0.01 %ID/g and the tissue uptake at 1 h ([3]; 60 min p.i., blocked with excess non-radiolabeled BN peptide, mean ± SD, n = 3, read-out: Heart uptake) was 0.27 ± 0.11 %ID/g. For the same compound, the tissue uptake at 1 h ([3]; 60 min p.i., blocked with excess non-radiolabeled BN peptide, mean ± SD, n = 3, read-out: Intestine uptake) was 1.66 ± 0.23 %ID/g, the tissue uptake at 1 h ([3]; 60 min p.i., blocked with excess non-radiolabeled BN peptide, mean ± SD, n = 3, read-out: Kidney uptake) was 3.18 ± 0.2 %ID/g and the tissue uptake at 1 h ([3]; Lung uptake) was 0.78 ± 0.02 %ID/g. It also gave a tissue uptake at 1 h ([3]; Muscle uptake) of 0.13 ± 0.1 %ID/g, a tissue uptake at 1 h ([3]; Spleen uptake) of 0.26 ± 0.03 %ID/g and a tissue uptake at 1 h ([3]; Stomach uptake) of 0.63 ± 0.1 %ID/g. For the same compound, the Liver uptake ([4]; 0.5 h) was 0.52 ± 0.13 %IA/g, the Stomach uptake ([4]; 0.5 h) was 0.91 ± 0.04 %IA/g and the Pancreas uptake ([4]; 1 h) was 1.98 ± 0.02 %IA/g. For the same compound, the Stomach uptake ([4]; 2 h) was 0.20 ± 0.01 %IA/g.
